Experiments:
rhCA-IV = biological target: T1, rhCA-IV (human, UniProt P22748 19-283, limits assumed); experiment: SPR, antibody captured by anti-human Fc
T1 construct: Bought; construct not described; also called recombinant human CA-IV

rhCA-XII = biological target: T2, rhCA-XII (human, UniProt O43570 25-291, limits assumed); experiment: SPR, antibody captured by anti-human Fc
T2 construct: Bought; construct not described; also called recombinant human CA-XII (Sino Biologics)

rhCA-XIV = biological target: T3, rhCA-XIV (human, UniProt Q9ULX7 16-290, limits assumed); experiment: SPR, antibody captured by anti-human Fc
T3 construct: Bought; construct not described; also called recombinant human CA-XIV
T3 sequence (Q9ULX7 16-290 limits assumed): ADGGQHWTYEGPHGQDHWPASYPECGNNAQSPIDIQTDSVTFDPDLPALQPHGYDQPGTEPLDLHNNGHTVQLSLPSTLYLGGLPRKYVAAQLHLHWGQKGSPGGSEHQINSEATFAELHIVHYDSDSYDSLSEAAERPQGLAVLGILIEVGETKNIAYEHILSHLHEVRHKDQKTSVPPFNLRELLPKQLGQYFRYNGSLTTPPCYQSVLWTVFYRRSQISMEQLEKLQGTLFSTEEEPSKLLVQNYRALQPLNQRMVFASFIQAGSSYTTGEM

rmCA-IX = biological target: T4, rmCA-IX (murine, UniProt Q8VHB5 32-389, limits assumed); experiment: SPR, antibody captured by anti-human Fc
T4 construct: Bought; construct not described; also called recombinant murine (rm)CA-IX
T4 sequence (Q8VHB5 32-389 limits assumed): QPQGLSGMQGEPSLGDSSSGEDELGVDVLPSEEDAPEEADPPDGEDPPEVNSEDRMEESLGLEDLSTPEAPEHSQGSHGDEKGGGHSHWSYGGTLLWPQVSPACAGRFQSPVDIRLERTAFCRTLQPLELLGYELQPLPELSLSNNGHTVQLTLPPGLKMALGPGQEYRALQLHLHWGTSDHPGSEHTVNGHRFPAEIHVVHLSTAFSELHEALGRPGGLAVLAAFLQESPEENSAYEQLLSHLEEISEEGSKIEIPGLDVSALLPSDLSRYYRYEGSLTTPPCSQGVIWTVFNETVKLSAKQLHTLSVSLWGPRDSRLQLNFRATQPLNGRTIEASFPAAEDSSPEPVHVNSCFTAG

[1] = biological target: T5, human CA-XII extracellular domain (ECD) (human, UniProt O43570 25-301); experiment: SPR, antibody captured by anti-human Fc
T5 construct: extracellular domain
T5 sequence (O43570 25-301): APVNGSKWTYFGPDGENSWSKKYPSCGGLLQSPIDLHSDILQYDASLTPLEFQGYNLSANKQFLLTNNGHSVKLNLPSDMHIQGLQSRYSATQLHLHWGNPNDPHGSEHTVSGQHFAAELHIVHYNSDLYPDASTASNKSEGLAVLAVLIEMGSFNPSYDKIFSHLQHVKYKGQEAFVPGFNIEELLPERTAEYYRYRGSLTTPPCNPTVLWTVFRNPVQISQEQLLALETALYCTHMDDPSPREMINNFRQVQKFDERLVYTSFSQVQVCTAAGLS

[2] = biological target: T6, hCA-IX PG domain fragment #1 (aa 37-51) displayed on yeast as Aga2-HA-CA9-MYC (pPNL6), clone 1 A + B (human, UniProt P32781 19-87 (Saccharomyces cerevisiae entry)); experiment: YSD whole yeast cell ELISA, native PG tiling fragment;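 further: monoclonal antibody binding to intact yeast cells displaying the fragment, read by ELISA, with the anti-CA-IX signal normalized against the anti-MYC display signal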
T6 construct: not shown: HA tag; MYC tag
T6 sequence (P32781 19-87 limits assumed): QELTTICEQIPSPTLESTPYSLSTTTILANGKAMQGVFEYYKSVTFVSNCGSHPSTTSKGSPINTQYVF

[3] = biological target: T7, hCA-IX PG domain fragment #2 (aa 47-61) displayed on yeast as Aga2-HA-CA9-MYC (pPNL6), clone 2 A + B (human, UniProt P32781 19-87 (Saccharomyces cerevisiae entry)); experiment: as above
T7 construct: not shown: HA tag; MYC tag
T7 sequence (P32781 19-87 limits assumed): as above

[4] = biological target: T8, hCA-IX PG domain fragment #3 (aa 57-71) displayed on yeast as Aga2-HA-CA9-MYC (pPNL6), clone 3 A + B (human, UniProt P32781 19-87 (Saccharomyces cerevisiae entry)); experiment: as above
T8 construct: not shown: HA tag; MYC tag
T8 sequence (P32781 19-87 limits assumed): as above

[5] = biological target: T9, hCA-IX PG domain fragment #4 (aa 67-81) displayed on yeast as Aga2-HA-CA9-MYC (pPNL6), clone 4 A + B (human, UniProt P32781 19-87 (Saccharomyces cerevisiae entry)); experiment: as above
T9 construct: not shown: HA tag; MYC tag
T9 sequence (P32781 19-87 limits assumed): as above

[6] = biological target: T10, hCA-IX PG domain fragment #7 (aa 97-111) displayed on yeast as Aga2-HA-CA9-MYC (pPNL6), clone 7 A + B (human, UniProt P32781 19-87 (Saccharomyces cerevisiae entry)); experiment: as above
T10 construct: not shown: HA tag; MYC tag
T10 sequence (P32781 19-87 limits assumed): as above

[7] = biological target: T11, hCA-IX PG domain fragment #9 (aa 117-131) displayed on yeast as Aga2-HA-CA9-MYC (pPNL6), clone 9 A + B (human, UniProt P32781 19-87 (Saccharomyces cerevisiae entry)); experiment: as above
T11 construct: not shown: HA tag; MYC tag
T11 sequence (P32781 19-87 limits assumed): as above

[8] = biological target: T12, hCA-IX PG domain fragment #10 (aa 126-140) displayed on yeast as Aga2-HA-CA9-MYC (pPNL6), clone 10 A + B (human, UniProt P32781 19-87 (Saccharomyces cerevisiae entry)); experiment: as above
T12 construct: not shown: HA tag; MYC tag
T12 sequence (P32781 19-87 limits assumed): as above

[9] = biological target: T13, hCA-IX PG domain fragment #11 (aa 37-71) displayed on yeast as Aga2-HA-CA9-MYC (pPNL6), clone 11 A + B (human, UniProt P32781 19-87 (Saccharomyces cerevisiae entry)); experiment: as above
T13 construct: not shown: HA tag; MYC tag
T13 sequence (P32781 19-87 limits assumed, chain 1 of 2): as the sequence (P32781 19-87 limits assumed) above
T13 sequence (chain (part 2 of 2), as listed by the source limits assumed, chain 2 of 2): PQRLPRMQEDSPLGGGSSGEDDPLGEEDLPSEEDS

[10] = biological target: T14, hCA-IX fragment 2 (aa 38-136, +PG+) displayed on yeast as Aga2-HA-CA9-MYC (pPNL6), clone 2B (human, UniProt P32781 19-87; Q16790 38-136); experiment: YSD whole yeast cell ELISA, native, normalised to anti-MYC
T14 construct: not shown: HA tag; MYC tag
T14 sequence (P32781 19-87 limits assumed, chain 1 of 2, other chains not shown): as the sequence (P32781 19-87 limits assumed) above

[11] = biological target: T15, hCA-IX fragment 8 (aa 38-414, +PG+CA+) displayed on yeast as Aga2-HA-CA9-MYC (pPNL6), clone 8B (human, UniProt P32781 19-87; Q16790 38-414); experiment: as above
T15 sequence (P32781 19-87 limits assumed, chain 1 of 2, other chains not shown): as the sequence (P32781 19-87 limits assumed) above

[12] = biological target: T16, hCA-IX PG domain fragment #5 (aa 77-91) displayed on yeast as Aga2-HA-CA9-MYC (pPNL6), clone 5 A + B (human, UniProt P32781 19-87 (Saccharomyces cerevisiae entry)); experiment: YSD whole yeast cell ELISA, native PG tiling fragment, normalised to anti-MYC
T16 construct: not shown: HA tag; MYC tag
T16 sequence (P32781 19-87 limits assumed): as above

[13] = biological target: T17, hCA-IX PG domain fragment #6 (aa 87-101) displayed on yeast as Aga2-HA-CA9-MYC (pPNL6), clone 6 A + B (human, UniProt P32781 19-87 (Saccharomyces cerevisiae entry)); experiment: as above
T17 construct: not shown: HA tag; MYC tag
T17 sequence (P32781 19-87 limits assumed): as above

[14] = biological target: T18, hCA-IX PG domain fragment #12 (aa 67-111) displayed on yeast as Aga2-HA-CA9-MYC (pPNL6), clone 12 A + B (human, UniProt P32781 19-87 (Saccharomyces cerevisiae entry)); experiment: as above
T18 construct: not shown: HA tag; MYC tag
T18 sequence (P32781 19-87 limits assumed, chain 1 of 2): as the sequence (P32781 19-87 limits assumed) above
T18 sequence (chain (part 2 of 2), as listed by the source limits assumed, chain 2 of 2): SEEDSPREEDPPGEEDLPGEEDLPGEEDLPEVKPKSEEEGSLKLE

[15] = biological target: T19, hCA-IX PG domain fragment #14 (aa 37-140) displayed on yeast as Aga2-HA-CA9-MYC (pPNL6), clone 14 A + B (human, UniProt P32781 19-87 (Saccharomyces cerevisiae entry)); experiment: as above
T19 construct: not shown: HA tag; MYC tag
T19 sequence (P32781 19-87 limits assumed, chain 1 of 2): as the sequence (P32781 19-87 limits assumed) above
T19 sequence (chain (part 2 of 2), as listed by the source limits assumed, chain 2 of 2): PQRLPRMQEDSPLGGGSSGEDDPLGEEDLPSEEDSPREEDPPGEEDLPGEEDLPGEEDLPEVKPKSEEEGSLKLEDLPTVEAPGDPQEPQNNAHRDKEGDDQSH

[16] = biological target: human Carbonic Anhydrase IX (hCA-IX) (human, UniProt Q16790 38-459); experiment: cell-based or functional assay
[17] = biological target: T16, hCA-IX PG domain fragment #5 (aa 77-91) …; experiment: YSD whole yeast cell ELISA, native PG tiling fragment;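 further: monoclonal antibody binding to intact yeast cells displaying the fragment, read by ELISA, with the anti-CA-IX signal normalized against the anti-MYC display signal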
[18] = biological target: T17, hCA-IX PG domain fragment #6 (aa …); experiment: as above
[19] = biological target: T20, hCA-IX PG domain fragment #8 (aa 107-121) displayed on yeast as Aga2-HA-CA9-MYC (pPNL6), clone 8 A + B (human, UniProt P32781 19-87 (Saccharomyces cerevisiae entry)); experiment: as above
T20 construct: not shown: HA tag; MYC tag
T20 sequence (P32781 19-87 limits assumed): as the sequence (P32781 19-87 limits assumed) above

[20] = biological target: T18, hCA-IX PG domain fragment #12 (aa …); experiment: as above
[21] = biological target: T21, hCA-IX PG domain fragment #13 (aa 107-140) displayed on yeast as Aga2-HA-CA9-MYC (pPNL6), clone 13 A + B (human, UniProt P32781 19-87 (Saccharomyces cerevisiae entry)); experiment: as above
T21 construct: not shown: HA tag; MYC tag
T21 sequence (P32781 19-87 limits assumed, chain 1 of 2): as the sequence (P32781 19-87 limits assumed) above
T21 sequence (chain (part 2 of 2), as listed by the source limits assumed, chain 2 of 2): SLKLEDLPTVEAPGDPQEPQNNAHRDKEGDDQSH

[22] = biological target: T22, dimeric CA-IX extracellular domain (ECD) from mouse (mouse, UniProt Q8VHB5 32-390); experiment: SPR, antibody captured by anti-human Fc, specific binding yes/no
T22 construct: extracellular domain
T22 sequence (Q8VHB5 32-390): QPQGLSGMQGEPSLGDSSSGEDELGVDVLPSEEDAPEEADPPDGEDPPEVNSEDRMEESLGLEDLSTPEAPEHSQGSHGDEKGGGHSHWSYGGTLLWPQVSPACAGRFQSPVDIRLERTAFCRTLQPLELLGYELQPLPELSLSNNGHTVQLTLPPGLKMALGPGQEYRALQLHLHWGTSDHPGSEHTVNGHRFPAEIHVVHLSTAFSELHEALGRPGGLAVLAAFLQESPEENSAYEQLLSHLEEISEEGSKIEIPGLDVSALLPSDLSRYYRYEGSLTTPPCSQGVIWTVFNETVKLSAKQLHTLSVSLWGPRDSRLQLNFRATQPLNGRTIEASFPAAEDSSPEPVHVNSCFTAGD

[23] = biological target: T6, hCA-IX PG domain fragment #1 (aa 37-51) …; experiment: YSD whole yeast cell ELISA, native PG tiling fragment, normalised to anti-MYC
[24] = biological target: T13, hCA-IX PG domain fragment #11 (aa …); experiment: as above
[25] = biological target: T15, hCA-IX fragment 8 (aa 38-414, +PG+CA+) …; experiment: YSD whole yeast cell ELISA, heat-denatured (80 C, 30 min), normalised to anti-MYC
rhCA-IX ECD dimer [26] = biological target: T23, rhCA-IX ECD dimer (human, UniProt Q16790 38-414); experiment: SPR (ProteOn XPR36), antibody captured by anti-human Fc, 0.74-60 nM antigen flowed, 1:1 model, 25 C
[27] = biological target: T24, rhCA-IX ECD mixture (monomer + dimer) (human, UniProt Q16790 38-414); experiment: SPR (ProteOn XPR36), mAb captured by anti-mouse Fc, 60 nM antigen flowed, 1:1 model, 25 C
rhCA-IX ECD dimer [28] = biological target: T23, rhCA-IX ECD dimer; experiment: as above
[29] = biological target: T24, rhCA-IX ECD mixture (monomer + dimer); experiment: reverse phase protein array, purified antigen; RPPA; ratio native/denatured, purified antigen

T1 sequence (P22748 19-283 limits assumed): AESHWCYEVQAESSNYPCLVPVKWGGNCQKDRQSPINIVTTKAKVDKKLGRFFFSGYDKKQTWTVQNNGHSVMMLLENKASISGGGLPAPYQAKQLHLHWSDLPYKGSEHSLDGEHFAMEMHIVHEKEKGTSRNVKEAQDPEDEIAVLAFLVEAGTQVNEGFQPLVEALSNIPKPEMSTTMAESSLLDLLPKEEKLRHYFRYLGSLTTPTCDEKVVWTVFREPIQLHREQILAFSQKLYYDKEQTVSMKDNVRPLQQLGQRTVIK
T2 sequence (O43570 25-291 limits assumed): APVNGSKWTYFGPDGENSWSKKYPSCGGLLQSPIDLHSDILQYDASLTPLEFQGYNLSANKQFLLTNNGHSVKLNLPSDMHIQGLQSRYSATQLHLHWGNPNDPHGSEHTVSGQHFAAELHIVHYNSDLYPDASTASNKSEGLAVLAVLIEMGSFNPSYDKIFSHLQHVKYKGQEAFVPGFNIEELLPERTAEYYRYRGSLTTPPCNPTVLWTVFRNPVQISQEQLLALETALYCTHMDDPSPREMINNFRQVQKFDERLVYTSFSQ

B1: c11H9 (chimeric 11H9, human IgG1 / human kappa 1) (antibody, V domains shown)
VH: EVQLVESGGRLVQPKGSLKLSCAASGFTFNTYAMYWIRQAPGKGLEWVARIRSKSNNYAIYYADSVKDRFTISRDDSQSMLYLQMNNLKTEDTAMYYCVRGWDWFAYWGQGTPVTVSA
VL: DVVMTQTPLSLPVSLGDQASISCRSSQSLVHSNGNTYLHWYLQKPGQSPKLLIYKVSNRFSGVPDRFSGSGSGTDFTLKISRVEAEDLGVYFCSQNTHVPPTFGGGTKLEIKR
notes: Expressed in CHO cells; also called chimeric (c) 11H9; c1H9
Which results are given for B1?
binding result (rhCA-IV): no binding (tested: 100 nM); binding result (rhCA-XII): no binding (tested: 100 nM); binding result (rhCA-XIV): no binding (tested: 100 nM); binding result (rmCA-IX): no binding (tested: 100 nM); binding result [1]: no binding (tested: 100 nM); binding result [2]: no binding; binding result [3]: no binding; binding result [4]: no binding; binding result [5]: no binding; binding result [6]: no binding; binding result [7]: no binding; binding result [8]: no binding; binding result [9]: no binding; binding result [10]: binds; binding result [11]: binds; binding result [12]: binds; binding result [13]: binds; binding result [14]: binds; binding result [15]: binds

B2: c12H8 (chimeric 12H8, human IgG1 / human kappa 1) (antibody, V domains shown)
VH: QIQLVQSGPELKKPGETVKISCKASGYTFTNYGMNWVQQAPGKGLKWMGWINTYTGEPTYADDFKGRFAFSLETSASTAYLQINNLKNEDMATYFCARGGIATPTSYWGQGTTLTVSS
VL: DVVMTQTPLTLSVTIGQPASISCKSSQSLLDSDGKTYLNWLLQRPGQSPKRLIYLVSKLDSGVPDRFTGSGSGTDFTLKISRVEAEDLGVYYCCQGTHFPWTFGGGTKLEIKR
notes: Expressed in CHO cells
With B2 as the binder, how does the “IC50 (nM), cell viability of sk-rc-52 cells, surrogate ADC assay (Mab-Zap saporin secondary antibody)” value [16] read?
The value was 23.6 nM.

Does B2 bind (rhCA-IV)?
Result: no binding (tested: 100 nM)

Does B2 bind (rhCA-XII)?
Result: no binding (tested: 100 nM)

Does B2 bind (rhCA-XIV)?
Result: no binding (tested: 100 nM)

Does B2 bind (rmCA-IX)?
Result: no binding (tested: 100 nM)

Does B2 bind [1]?
Result: no binding (tested: 100 nM)

Does B2 bind [3]?
Result: no binding

Does B2 bind [4]?
Result: no binding

Does B2 bind [5]?
Result: no binding

Does B2 bind [17]?
Result: no binding

Does B2 bind [18]?
Result: no binding

Does B2 bind [6]?
Result: no binding

Does B2 bind [19]?
Result: no binding

Does B2 bind [7]?
Result: no binding

Does B2 bind [8]?
Result: no binding

Does B2 bind [20]?
Result: no binding

Does B2 bind [21]?
Result: no binding

Does B2 bind [10]?
Result: binds

Does B2 bind [22]?
Result: no binding

Does B2 bind [23]?
Result: binds

Does B2 bind [24]?
Result: binds

Does B2 bind [15]?
Result: binds

Does B2 bind [25]?
Result: binds

What about the Kd (rhCA-IX ECD dimer [26]) of the same binder?
Its Kd is 0.979 nM.

B3: c12H8-DM1 (antibody, V domains shown)
VH: QIQLVQSGPELKKPGETVKISCKASGYTFTNYGMNWVQQAPGKGLKWMGWINTYTGEPTYADDFKGRFAFSLETSASTAYLQINNLKNEDMATYFCARGGIATPTSYWGQGTTLTVSS
VL: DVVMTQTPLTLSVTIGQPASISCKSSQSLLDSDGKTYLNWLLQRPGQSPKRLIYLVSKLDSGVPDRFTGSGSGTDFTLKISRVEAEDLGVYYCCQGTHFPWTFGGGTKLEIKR
modifications: DM1 (mertansine) conjugated with SMCC-DM1, target DAR 3.5; sites not stated
Which “IC50 (nM), cell viability of sk-rc-52 cells, ADC assay” value [16] does the source give for B3 here?
Its value is 17.9 nM.

B4: mAb 12H8 (hybridoma-derived) (antibody, mouse IgG1, V domains shown)
VH: QIQLVQSGPELKKPGETVKISCKASGYTFTNYGMNWVQQAPGKGLKWMGWINTYTGEPTYADDFKGRFAFSLETSASTAYLQINNLKNEDMATYFCARGGIATPTSYWGQGTTLTVSS
VL: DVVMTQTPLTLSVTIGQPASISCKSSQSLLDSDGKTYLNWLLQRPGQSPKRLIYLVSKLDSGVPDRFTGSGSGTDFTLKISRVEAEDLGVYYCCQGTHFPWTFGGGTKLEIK
notes: also called clone 12H8 (fusion F101); 12HD8
Which results are given for B4?
koff [27]: < 1e-05 s⁻¹; Kd (rhCA-IX ECD dimer [28]): 0.143 nM; Ratio (A)/(B), native over denatured [29]: 1.11

From patent publication US20180186893A1 (NATIONAL RESEARCH COUNCIL OF CANADA, published 2018)
